One molecule from publication PMC5799255, “Histone H5 is a potent Antimicrobial Agent and a template for novel Antimicrobial Peptides” (Scientific Reports, 2018) can be followed below.

Assay [1] deals with Listeria monocytogenes (ATCC 19112). Particulars: for MIC: broth microdilution. The procedure:
(§1) Antimicrobial activity of histone H5 against a variety of Gram-positive and Gram-negative planktonic bacteria was evaluated using a broth microdilution assay.
(§2) The antimicrobial activity of these peptides against Gram-positive and Gram-negative planktonic bacteria was evaluated using broth microdilution assays.
(§3) The bacterial strains tested in this study were Gram-positive bacteria (Bacillus cereus (ATCC 11778), methicillin-sensitive Staphylococcus aureus (ATCC 6538), methicillin-resistant Staphylococcus aureus (ATCC 29247), Listeria monocytogenes (ATCC 19112), Enterococcus faecalis (clinical isolate) and vancomycin-resistant Enterococcus (ATCC 51299)) and Gram-negative bacteria Escherichia coli K12 (ATCC 29425), Escherichia coli (O157:H7), Pseudomonas aeruginosa (ATCC 15442) and Salmonella typhimurium (ATCC 1535)). Bacterial colonies from glycerol stocks were plated on LB agar plates (BHI agar plates for L. monocytogenes) and incubated overnight at 37 °C. Single colonies from these plates were grown in 3 mL of LB broth (BHI broth for L. monocytogenes) overnight at 37 °C and shaken at 250 rpm. […] The bacterial suspension was pelleted at 3,000 × g, 4 °C for 10 minutes and washed with PBS (twice), and then adjusted to 10^5–10^6 CFUs/mL in PBS.
(§4) Supplementary Information
(§5) Broth microdilution assay
(§6) The protocol for this step of the project was based on established methods22. Histone H5 or the peptides were dissolved in sterile water, pH 7.4, serially two-fold diluted and aliquoted in a 1:1 (v/v) ratio with bacteria. Kanamycin or ampicillin served as a positive control for inhibition, and sterile water (pH 7.4) as a negative control for inhibition. The tubes were then incubated for 3 hours at 37°C an d shaken at 200 rpm. Next, 100 µL of each tube and 100µL of LB broth (BHI broth for L. monocytogenes) was plated in wells of a 96-well microplate. The microplate was incubated in the EON microplate reader overnight at 206 oscillations/min and at 37°C. During this period, the EON microplate spectrophotometer and Gen5 data analysis software (BioTek, Winooski, VT, USA) were used to monitor the growth of bacteria by measuring the optical density at 600 nm every 30 minutes for 18 hours. The lowest protein concentration without visible bacterial growth was designated as the minimum inhibitory concentration (MIC). Bacteria (10 µL) from the wells at MIC, MIC x 2 and MIC x 3 concentrations of H5 were plated on LB agar (BHI agar for L. monocytogenes) and incubated at 37°C for 18 hours. The lowest concentration of histone H5 without a single colony was designated as the minimum bactericidal concentration (MBC).

The test system of assay [2] is Pseudomonas aeruginosa (ATCC 15442). The procedure: as §1, §2, §3, §4, §5, §6
Assay [3] relates to Escherichia coli (O157:H7). Description: Broth microdilution assay (MIC/MBC), planktonic bacteria. The assay is classed as cell-based. On the procedure: Antimicrobial activity of histone H5 against a variety of Gram-positive and Gram-negative planktonic bacteria was evaluated using a broth microdilution assay. The average minimum inhibitory concentration (MIC) and minimum bactericidal concentration (MBC) values (mean ± SD, n = 3) for six Gram-positive and four Gram-negative bacterial species are shown in Table 2. […] E. faecalis was the least susceptible to histone H5 inhibition, requiring over 32 µg/mL for complete bacterial growth inhibition which was the highest histone H5 concentration tested.
as §3, §4, §5
The protocol for this step of the project was based on established methods22. […] The microplate was incubated in the EON microplate reader overnight at 206 oscillations/min and at 37°C. […]
This assay is based on a previously described protocol22. The potential for hemolytic activity was assessed using rat red blood cells (RBCs) which were obtained from the University of Ottawa Animal Care Facility and in accordance with the University of Ottawa Animal Care

Assay [4] deals with Pseudomonas aeruginosa biofilms. Briefly: MBEC assay (MBEC Assay Biofilm Inoculator), anti-biofilm activity. Type of assay: cell-based. Particulars: 2 h treatment at 37 °C; for biofilm growth inhibition (log inhibition): versus untreated control, three independent trials, P < 0.04. The procedure:
The anti-biofilm activity of histone H5 against P. aeruginosa and L. monocytogenes biofilms was assessed using the MBEC Assay Biofilm Inoculator (formerly the Calgary Biofilm Device (CBD)).
The preparation of the bacterial suspension was the same as described in the determination of the MIC and MBC, except that the bacterial suspension was adjusted to 10^5 CFUs/ml in LB broth (BHI broth for L. monocytogenes), not PBS. Wells of an MBEC™ Assay Biofilm Inoculator (Innovotech, Edmonton, AB), which contains pegs projecting downwards from the lid that serve as a surface for biofilm formation, were inoculated with 150 µL of bacterial suspension. The plate was incubated for 24 hours at 37 °C (110 rpm) for Pseudomonas aeruginosa bacterial biofilms or for 72 hours at 22 °C (60 rpm) for Listeria monocytogenes. Following incubation, planktonic cells were rinsed away by switching the 96-peg lid to a sterile 96-well microplate with 200 μL of sterile PBS per well. Pegs with established biofilms were incubated with 200 μL of histone H5 (dissolved in sterile water, pH 7.4), in wells of another sterile 96-well microplate containing serially two-fold dilutions of H5. Solutions of gentamicin and kanamycin served as positive controls for P. aeruginosa and L. monocytogenes, respectively, whereas sterile water (pH 7.4) served as a negative control. The device was incubated for 2 hours at 37 °C, 110 rpm for P. aeruginosa and at 22 °C, 60 rpm for L. monocytogenes. The 96-peg lid was then rinsed twice as described above and placed on a sterile 96-well microplate with 200 μL of LB broth (P. aeruginosa) or BHI broth (L. monocytogenes) per well. The microplate was sonicated for 10 minutes (P. aeruginosa) or 30 minutes (L. monocytogenes) in order to dislodge the biofilms from the pegs, after which the peg-lid was replaced with a sterile, normal lid. This microplate was incubated in the EON microplate reader overnight at 37 °C (206 oscillations/min). The EON microplate spectrophotometer with Gen5 data analysis software (BioTek, Winooski, VT, USA) was used to monitor the growth of bacteria by measuring the optical density at 600 nm every 30 minutes for 24 hours (P. aeruginosa) or 48 hours (L. monocytogenes). The lowest histone H5 concentration without visible bacterial growth was designated as the minimum biofilm eradication concentration (MBEC). Additionally, a standard curve for the number of viable bacteria in the inoculum versus bacterial growth lag time was generated, since every microplate additionally contained wells with serially ten-fold diluted bacteria obtained from the uninhibited biofilm control (sterile H2O). Bacterial growth inhibition for each histone H5 concentration tested was determined from this standard curve.

Setting [5] is: broth microdilution, 3 h at 37 °C, then OD600 growth 18 h in LB broth, mean ± SD, n = 3.
The mark [6] stands for this setting: plated on LB agar, 37 °C 18 h, lowest concentration without a single colony, mean ± SD, n = 3.
Where [7] appears, read: value in the figure, representative of three independent trials, each in triplicate.

Like-named read-outs stand apart in the source and are kept apart here. A value given as a limit tells only on which side of the number the result lay.

B1: histone H5: erythrocyte-specific linker histone purified from chicken erythrocytes, 190 amino acids (protein, UniProt P02259 2-190, looked up)
Histone H5: TESLVLSPAPAKPKRVKASRRSASHPTYSEMIAAAIRAEKSRGGSSRQSIQKYIKSHYKVGHNADLQIKLSIRRLLAAGVLKQTKGVGASGSFRLAKSDKAKRSPGKKKKAVRRSTSPKKAARPRKARSPAKKPKATARKARKKSRASPKKAKKPKTVKAKSRKASKAKKVKRSKPRAKSGARKSPKKK
As for B1, the MIC in assay [1] (MIC given in molar units) amounted to 0.2 ± 0 µM; in assay [1] (3 h at 37 °C, then OD600 growth 18 h in BHI broth, mean ± SD, n = 3), 4 ± 0 µg/mL; in assay [2] (broth microdilution, MIC given in molar units), 0.1 ± 0.1 µM; in assay [2] (setting [5]), 2.9 ± 1 µg/mL; in assay [2] (setting [7]) it was 4 µg/mL; in assay [3] (setting [5]), 4.9 ± 1.5 µg/mL. In assay [3] (setting [7]), this molecule displayed a minimum inhibitory concentration (MIC) of 6.7 µg/mL. The minimal bactericidal concentration (MBC) in assay [1] (plated on BHI agar, 37 °C 18 h, lowest concentration without a single colony, mean ± SD, n = 3) amounted to 4.4 ± 0.8 µg/mL; in assay [2] (setting [6]) it was 2.9 ± 1 µg/mL; in assay [3] (setting [6]) it was 4.9 ± 1.5 µg/mL. The “biofilm growth inhibition (log inhibition)” value was 0.7 ± 0.2 log inhibition in assay [4] (32 µg/mL), 1.6 ± 0.5 log inhibition in assay [4] (64 µg/mL) and 2.3 ± 0.9 log inhibition in assay [4] (128 µg/mL). In addition, in assay [4] (biofilm grown 24 h at 37 °C on pegs, recovery growth OD600 24 h in LB broth, highest concentration 128 µg/mL, n = 3), the MBEC was >128 µg/mL.
